Assay results: US20240024501A1 (BONUM THERAPEUTICS, published 2024)

Molecular target: PD-1-Fc (UniProt Q15116 25-167, limits assumed)
Test: cell-based or functional assay

Sequence of PD-1-Fc (Q15116 25-167 limits assumed): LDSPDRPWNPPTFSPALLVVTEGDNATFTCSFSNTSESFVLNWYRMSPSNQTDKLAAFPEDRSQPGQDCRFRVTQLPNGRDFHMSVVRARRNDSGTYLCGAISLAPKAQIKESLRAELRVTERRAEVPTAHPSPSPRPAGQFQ

B1: AF4403 (other)
heavy 1: QVQLVESGGGVVQPGRSLRLDCKASGITFSNSGMHWVRQAPGKGLEWVAVIWYDGSKRYYADSVKGRFTISRDNSKNTLFLQMNSLRAEDTAVYYCATNDDYWGQGTLVTVSSAKTTAPSVYPLAPVCGDTTGSSVTLGCLVKGYFPEPVTLTWNSGSLSSGVHTFPAVLQSDLYTLSSSVTVTSSTWPSQSITCNVAHPASSTKVDKKIEPRGPTIKPCPPCKCPAPNAAGGPSVFIFPPKIKDVLMISLSPIVTCVVVDVSEDDPDVQISWFVNNVEVHTAQTQTHREDYNSTLRVVSALPIQHQDWMSGKEFKCKVNNKDLGAPIERTISKPKGSVRAPQVYVLPPPEKEMTKKQVSLTCLVKDFMPEDIYVEWTNNGKTELNYKNTEPVLKSDGSYFMYSKLTVEKKNWVERNSYSCSVVHEGLHNHHTTKSFSRTPGGGGGSGGGGSGGGGSGGGGSQVQLVQSGAEVKKPGASVKVSCKASGDTFTRYYVHWVRQAPGQGLEWMGIINPSGGYASYAQKFQGRVTMTRDTSTSTVYMELSSLRSEDTAVYYCAAGLFIWGQGTLVTVSSASGGGGSGGGGSGGGGSHASDIQMTQSPSSLSASVGDRVTITCRASQSIGRYLAWYQQKPGKAPKLLIYSASNLETGVPSRFSGSGSGTDFTLTISSLQPEDFATYYCQQYNSFPVTFGPGTKVDIKGGGSGGGSHHHHHH
heavy 2: QVQLVESGGGVVQPGRSLRLDCKASGITFSNSGMHWVRQAPGKGLEWVAVIWYDGSKRYYADSVKGRFTISRDNSKNTLFLQMNSLRAEDTAVYYCATNDDYWGQGTLVTVSSAKTTAPSVYPLAPVCGDTTGSSVTLGCLVKGYFPEPVTLTWNSGSLSSGVHTFPAVLQSDLYTLSSSVTVTSSTWPSQSITCNVAHPASSTKVDKKIEPRGPTIKPCPPCKCPAPNAAGGPSVFIFPPKIKDVLMISLSPIVTCVVVDVSEDDPDVQISWFVNNVEVHTAQTQTHREDYNSTLRVVSALPIQHQDWMSGKEFKCKVNNKDLGAPIERTISKPKGSVRAPQVYVLPPPEEEMTKKQVTLTCMVTDFMPEDIYVEWTNNGKTELNYKNTEPVLDSDGSYFMYSDLRVEKKNWVERNSYSCSVVHEGLHNHHTTESFSRTPGGGGGSGGGGSGGGGSAPTSSSTKKTQLQLEHLLLDLQMILNGINNYKNPKLTDMLTFEFYMPKKATELKHLQCLERELKPLEEVLNLAQSKNFHLRPRDLISNINVIVLELKGSETTFMCEYADETATIVEFLNRWITFCQSIISTLT
light: EIVLTQSPATLSLSPGERATLSCRASQSVSSYLAWYQQKPGQAPRLLIYDASNRATGIPARFSGSGSGTDFTLTISSLEPEDFAVYYCQQSSNWPRTFGQGTKVEIKRADAAPTVSIFPPSSEQLTSGGASVVCFLNNFYPKDINVKWKIDGSERQNGVLNSWTDQDSKDSTYSMSSTLTLTKDEYERHNSYTCEATHKTSTSPIVKSFNRNEC
- EC50 of IL-2 activity, HEK-Blue IL-2 reporter cells, PD-1 coated wells: 0.031 nM
- EC50 of IL-2 activity, HEK-Blue IL-2 reporter cells, control wells (no PD-1): 0.062 nM

B2: AF4404 (other)
heavy 1: QVQLVESGGGVVQPGRSLRLDCKASGITFSNSGMHWVRQAPGKGLEWVAVIWYDGSKRYYADSVKGRFTISRDNSKNTLFLQMNSLRAEDTAVYYCATNDDYWGQGTLVTVSSAKTTAPSVYPLAPVCGDTTGSSVTLGCLVKGYFPEPVTLTWNSGSLSSGVHTFPAVLQSDLYTLSSSVTVTSSTWPSQSITCNVAHPASSTKVDKKIEPRGPTIKPCPPCKCPAPNAAGGPSVFIFPPKIKDVLMISLSPIVTCVVVDVSEDDPDVQISWFVNNVEVHTAQTQTHREDYNSTLRVVSALPIQHQDWMSGKEFKCKVNNKDLGAPIERTISKPKGSVRAPQVYVLPPPEKEMTKKQVSLTCLVKDFMPEDIYVEWTNNGKTELNYKNTEPVLKSDGSYFMYSKLTVEKKNWVERNSYSCSVVHEGLHNHHTTKSFSRTPGGGGGSGGGGSGGGGSGGGGSQVQLVQSGAEVKKPGASVKVSCKASGYTFTDYYMHWVRQAPGQGLEWMGIINPRAGYTSYALKFQGRVTMTRDTSTSTVYMELSSLRSEDTAVYYCTSGWDVWGQGTLVTVSSASGGGGSGGGGSGGGGSHASDIQMTQSPSSLSASVGDRVTITCRASQSISTWLAWYQQKPGKAPKLLIYAASSLDSGVPSRFSGSGSGTDFTLTISSLQPEDFATYYCQQSYSFPVTFGQGTKVEIKGGGSGGGSHHHHHH
heavy 2: QVQLVESGGGVVQPGRSLRLDCKASGITFSNSGMHWVRQAPGKGLEWVAVIWYDGSKRYYADSVKGRFTISRDNSKNTLFLQMNSLRAEDTAVYYCATNDDYWGQGTLVTVSSAKTTAPSVYPLAPVCGDTTGSSVTLGCLVKGYFPEPVTLTWNSGSLSSGVHTFPAVLQSDLYTLSSSVTVTSSTWPSQSITCNVAHPASSTKVDKKIEPRGPTIKPCPPCKCPAPNAAGGPSVFIFPPKIKDVLMISLSPIVTCVVVDVSEDDPDVQISWFVNNVEVHTAQTQTHREDYNSTLRVVSALPIQHQDWMSGKEFKCKVNNKDLGAPIERTISKPKGSVRAPQVYVLPPPEEEMTKKQVTLTCMVTDFMPEDIYVEWTNNGKTELNYKNTEPVLDSDGSYFMYSDLRVEKKNWVERNSYSCSVVHEGLHNHHTTESFSRTPGGGGGSGGGGSGGGGSAPTSSSTKKTQLQLEHLLLDLQMILNGINNYKNPKLTDMLTFEFYMPKKATELKHLQCLERELKPLEEVLNLAQSKNFHLRPRDLISNINVIVLELKGSETTFMCEYADETATIVEFLNRWITFCQSIISTLT
light: EIVLTQSPATLSLSPGERATLSCRASQSVSSYLAWYQQKPGQAPRLLIYDASNRATGIPARFSGSGSGTDFTLTISSLEPEDFAVYYCQQSSNWPRTFGQGTKVEIKRADAAPTVSIFPPSSEQLTSGGASVVCFLNNFYPKDINVKWKIDGSERQNGVLNSWTDQDSKDSTYSMSSTLTLTKDEYERHNSYTCEATHKTSTSPIVKSFNRNEC
- EC50 of IL-2 activity, HEK-Blue IL-2 reporter cells, PD-1 coated wells: 0.026 nM
- EC50 of IL-2 activity, HEK-Blue IL-2 reporter cells, control wells (no PD-1): 0.064 nM

B3: AF4379 (other)
heavy: APTSSSTKKTQLQLEHLLLDLQMILNGINNYKNPKLTDMLTFEFYMPKKATELKHLQCLERELKPLEEVLNLAQSKNFHLRPRDLISNINVIVLELKGSETTFMCEYADETATIVEFLNRWITFCQSIISTLTGGGGSGGGGSGGGGSGGGGSQVQLVQSGAEVKKPGASVKVSCKASGDTFTRYYVHWVRQAPGQGLEWMGIINPSGGYASYAQKFQGRVTMTRDTSTSTVYMELSSLRSEDTAVYYCAAGLFIWGQGTLVTVSSAKTTAPSVYPLAPVCGDTTGSSVTLGCLVKGYFPEPVTLTWNSGSLSSGVHTFPAVLQSDLYTLSSSVTVTSSTWPSQSITCNVAHPASSTKVDKKIEPRGPTIKPCPPCKCPAPNAAGGPSVFIFPPKIKDVLMISLSPIVTCVVVDVSEDDPDVQISWFVNNVEVHTAQTQTHREDYNSTLRVVSALPIQHQDWMSGKEFKCKVNNKDLGAPIERTISKPKGSVRAPQVYVLPPPEEEMTKKQVTLTCMVTDFMPEDIYVEWTNNGKTELNYKNTEPVLDSDGSYFMYSKLRVEKKNWVERNSYSCSVVHEGLHNHHTTKSFSRTPGK
light: DIQMTQSPSSLSASVGDRVTITCRASQSIGRYLAWYQQKPGKAPKLLIYSASNLETGVPSRFSGSGSGTDFTLTISSLQPEDFATYYCQQYNSFPVTFGPGTKVDIKRADAAPTVSIFPPSSEQLTSGGASVVCFLNNFYPKDINVKWKIDGSERQNGVLNSWTDQDSKDSTYSMSSTLTLTKDEYERHNSYTCEATHKTSTSPIVKSFNRNEC
- EC50 of IL-2 activity, HEK-Blue IL-2 reporter cells, IgG1 coated wells (no PD-1): 0.062 nM
- EC50 of IL-2 activity, HEK-Blue IL-2 reporter cells, PD-1 coated wells: 0.031 nM

B4: AF4389 (other)
heavy 1: APTSSSTKKTQLQLEHLLLDLQMILNGINNYKNPKLTDMLTFEFYMPKKATELKHLQCLERELKPLEEVLNLAQSKNFHLRPRDLISNINVIVLELKGSETTFMCEYADETATIVEFLNRWITFCQSIISTLTGGGGSGGGGSGGGGSGGGGSQVQLVQSGAEVKKPGASVKVSCKASGHTFTRYYMHWVRQAPGQGLEWMGIINPSGGYATYAQKFQGRVTMTRDTSTSTVYMELSSLRSEDTAVYYCASGLFIWGQGTLVTVSSAKTTAPSVYPLAPVCGDTTGSSVTLGCLVKGYFPEPVTLTWNSGSLSSGVHTFPAVLQSDLYTLSSSVTVTSSTWPSQSITCNVAHPASSTKVDKKIEPRGPTIKPCPPCKCPAPNAAGGPSVFIFPPKIKDVLMISLSPIVTCVVVDVSEDDPDVQISWFVNNVEVHTAQTQTHREDYNSTLRVVSALPIQHQDWMSGKEFKCKVNNKDLGAPIERTISKPKGSVRAPQVYVLPPPEEEMTKKQVTLTCMVTDFMPEDIYVEWTNNGKTELNYKNTEPVLDSDGSYFMYSDLRVEKKNWVERNSYSCSVVHEGLHNHHTTESFSRTPGK
heavy 2: QVQLVQSGAEVKKPGASVKVSCKASGHTFTRYYMHWVRQAPGQGLEWMGIINPSGGYATYAQKFQGRVTMTRDTSTSTVYMELSSLRSEDTAVYYCASGLFIWGQGTLVTVSSAKTTAPSVYPLAPVCGDTTGSSVTLGCLVKGYFPEPVTLTWNSGSLSSGVHTFPAVLQSDLYTLSSSVTVTSSTWPSQSITCNVAHPASSTKVDKKIEPRGPTIKPCPPCKCPAPNAAGGPSVFIFPPKIKDVLMISLSPIVTCVVVDVSEDDPDVQISWFVNNVEVHTAQTQTHREDYNSTLRVVSALPIQHQDWMSGKEFKCKVNNKDLGAPIERTISKPKGSVRAPQVYVLPPPEKEMTKKQVSLTCLVKDFMPEDIYVEWTNNGKTELNYKNTEPVLKSDGSYFMYSKLTVEKKNWVERNSYSCSVVHEGLHNHHTTKSFSRTPGGGGSGGGSHHHHHH
light: DIQMTQSPSSLSASVGDRVTITCRASQSINSWLAWYQQKPGKAPKLLIYATSTLESGVPSRFSGSGSGTDFTLTISSLQPEDFATYYCQQYYRFPVTFGQGTKVEIKRADAAPTVSIFPPSSEQLTSGGASVVCFLNNFYPKDINVKWKIDGSERQNGVLNSWTDQDSKDSTYSMSSTLTLTKDEYERHNSYTCEATHKTSTSPIVKSFNRNEC
- EC50 of IL-2 activity, HEK-Blue IL-2 reporter cells, IgG1 coated wells (no PD-1): 1.67 nM
- EC50 of IL-2 activity, HEK-Blue IL-2 reporter cells, PD-1 coated wells: 0.118 nM
